# From KR20230083068A (dated 2023)
# Legend:
# [1] = molecular target: T1, 비오틴 펩타이드-6xHis-tagged HCoV-OC43 N 단백질 (HCoV-OC43 N 단백질-Bio-His6) (HCoV-OC43, UniProt P33469 1-448)
# T1 chain: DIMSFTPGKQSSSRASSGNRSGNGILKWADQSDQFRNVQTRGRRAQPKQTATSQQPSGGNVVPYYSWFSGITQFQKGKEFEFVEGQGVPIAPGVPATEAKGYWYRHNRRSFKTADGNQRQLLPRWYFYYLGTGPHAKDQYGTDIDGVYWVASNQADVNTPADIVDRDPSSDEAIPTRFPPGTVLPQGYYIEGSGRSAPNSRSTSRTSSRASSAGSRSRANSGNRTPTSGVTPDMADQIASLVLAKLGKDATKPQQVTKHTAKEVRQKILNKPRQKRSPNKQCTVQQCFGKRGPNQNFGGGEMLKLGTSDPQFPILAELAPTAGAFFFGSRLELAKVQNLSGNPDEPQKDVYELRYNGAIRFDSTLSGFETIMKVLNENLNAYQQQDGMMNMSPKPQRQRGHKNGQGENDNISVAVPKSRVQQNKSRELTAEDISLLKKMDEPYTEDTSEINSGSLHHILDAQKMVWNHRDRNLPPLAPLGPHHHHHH
# [2] = molecular target: MERS-CoV N 단백질 (MERS-CoV 감염 Vero 세포 용해물) (MERS-CoV, UniProt K9N4V7 1-411); test: western blot of infected Vero cell lysates
# [3] = molecular target: SARS-CoV-2 N 단백질 (SARS-CoV-2 감염 Vero 세포 용해물) (SARS-CoV-2, UniProt P0DTC9 1-419); test: western blot of infected Vero cell lysates
binder,measurement,setting,value
"항-HCoV-OC43 N 단백질 특이적 단클론 항체 (클론 1C7D7 mAb) (antibody, V domains shown, also called anti-HCoV-OC43 N monoclonal antibody) VH: EVKLEQSGGGLVKPGGSLKLSCAASGFSFSSHTMSWVRQTPEKRLEWVATITSGGTYTYYPDSVKGRFTISRDNAKNTLYLQMTSLKSEDTAMYYCTRGQEADGYYVPFAYWGQGTLVTVSA VL: DIVMTQSPSSLAVSVGEKVTMSCKSSQSLLYSSNQKNYLAWYQQKPGQSPKLLIFWASTRESGVPDRFTGSGSGTDFTLTISSVQAEDLAVYYCKQSYNLRTFGGGTKLEIKR",EC50,[1],~1.2 nM
same,binding result,[2],no binding
same,binding result,[3],no binding
